Square brackets hold non-standard residues; d marks the D form. Ends that are not written are not given here. AEEA = NCCOCCOCC(=O)O
Columns and labels:
[1] = molecular target: the molecule itself; experiment: analytical ultracentrifugation, equilibrium sedimentation, homodimer, 5 mM C14-betaine micelles
Method: (§1) Equilibrium sedimentation was used primarily to determine the association state of the peptides, but also to provide a rough estimate of the heterodimeric association constants. […] Peptides were co-dissolved in CF₃CH₂OH (Sigma-Aldrich, St. Louis, Mo.) and C14-betaine (3-(N,N-dimethylmyristyl-ammonio)propanesulfonate; Sigma-Aldrich, St. Louis, Mo.). […] The final concentration of C-14 betaine is 5 mM in the samples. Samples were prepared in a total peptide concentration of 50 μM (in case of heterodimer formation, a 1:1 mixture was prepared) and incubated overnight. Data at three measurement speeds (40, 45, and 50 KRPM for αIIb peptides and 30, 35, and 40 KRPM for the αv peptides) were analyzed by global curve-fitting of radial concentration gradients (measured using optical absorption) (FIG. 8a-8f) to the sedimentation equilibrium equation for monomer-dimer equilibria among the peptides included in the solution. […] Aqueous solution molar extinction coefficients at 280 nm were calculated using the program Sednterp. […] These coefficients were multiplied by the molar detergent concentration to provide mole ratio concentration units.
(§2) Ultracentrifugation data (FIG. 8) were first collected for the individual peptides.

[2] = molecular target: integrin αVβ3 on human platelets (human, UniProt P06756 31-1048; P05106 27-788); experiment: cell-based or functional assay
αV-TM-coum = molecular target: T1, αV-TM-coum (coumarin label (site not stated)); experiment: analytical ultracentrifugation, equilibrium sedimentation, heterodimer, 1:1 mixture in 5 mM C14-betaine micelles
T1 peptide: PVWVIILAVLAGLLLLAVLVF

[3] = molecular target: T2, fluorescein-5-isothiourea-tagged αIIb-TM (fluorescein-5-isothiourea (FITC) attached via an ε-aminohexanoic acid linker to the N-terminus); experiment: as above
T2 construct: also called FITC-αIIb-TM; αIIb-TM-FITC
T2 peptide: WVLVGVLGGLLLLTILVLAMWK
Method: as §1, §2

Sequence of integrin αVβ3 on human platelets (P06756 31-1048, chain 1 of 2): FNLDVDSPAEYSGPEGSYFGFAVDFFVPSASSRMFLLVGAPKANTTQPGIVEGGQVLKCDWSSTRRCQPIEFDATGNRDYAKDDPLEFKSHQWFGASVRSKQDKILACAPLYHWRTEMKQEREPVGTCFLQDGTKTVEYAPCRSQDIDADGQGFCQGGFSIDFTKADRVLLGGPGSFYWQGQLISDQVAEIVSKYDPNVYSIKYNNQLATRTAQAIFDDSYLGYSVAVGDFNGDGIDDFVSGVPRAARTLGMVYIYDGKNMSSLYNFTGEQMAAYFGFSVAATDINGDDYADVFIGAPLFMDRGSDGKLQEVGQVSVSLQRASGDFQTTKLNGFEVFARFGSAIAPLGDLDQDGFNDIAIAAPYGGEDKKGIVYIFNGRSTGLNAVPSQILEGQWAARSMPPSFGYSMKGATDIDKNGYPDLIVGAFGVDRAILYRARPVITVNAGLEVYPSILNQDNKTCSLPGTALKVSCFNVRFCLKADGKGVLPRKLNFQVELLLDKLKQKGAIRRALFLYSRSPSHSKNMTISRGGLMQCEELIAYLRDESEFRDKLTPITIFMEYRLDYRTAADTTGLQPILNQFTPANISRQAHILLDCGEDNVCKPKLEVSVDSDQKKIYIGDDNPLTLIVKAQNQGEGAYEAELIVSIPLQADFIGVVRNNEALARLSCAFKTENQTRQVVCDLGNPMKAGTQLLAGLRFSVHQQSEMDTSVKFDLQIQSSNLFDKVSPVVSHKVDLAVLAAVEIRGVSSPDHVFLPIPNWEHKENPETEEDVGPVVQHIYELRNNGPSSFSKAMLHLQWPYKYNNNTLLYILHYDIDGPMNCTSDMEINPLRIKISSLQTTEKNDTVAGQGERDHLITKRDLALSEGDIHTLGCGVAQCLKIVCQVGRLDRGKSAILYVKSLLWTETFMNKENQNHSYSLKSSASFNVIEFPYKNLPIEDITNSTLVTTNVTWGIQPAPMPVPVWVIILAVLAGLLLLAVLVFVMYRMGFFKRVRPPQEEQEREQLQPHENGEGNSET
Sequence of integrin αVβ3 on human platelets (P05106 27-788, chain 2 of 2): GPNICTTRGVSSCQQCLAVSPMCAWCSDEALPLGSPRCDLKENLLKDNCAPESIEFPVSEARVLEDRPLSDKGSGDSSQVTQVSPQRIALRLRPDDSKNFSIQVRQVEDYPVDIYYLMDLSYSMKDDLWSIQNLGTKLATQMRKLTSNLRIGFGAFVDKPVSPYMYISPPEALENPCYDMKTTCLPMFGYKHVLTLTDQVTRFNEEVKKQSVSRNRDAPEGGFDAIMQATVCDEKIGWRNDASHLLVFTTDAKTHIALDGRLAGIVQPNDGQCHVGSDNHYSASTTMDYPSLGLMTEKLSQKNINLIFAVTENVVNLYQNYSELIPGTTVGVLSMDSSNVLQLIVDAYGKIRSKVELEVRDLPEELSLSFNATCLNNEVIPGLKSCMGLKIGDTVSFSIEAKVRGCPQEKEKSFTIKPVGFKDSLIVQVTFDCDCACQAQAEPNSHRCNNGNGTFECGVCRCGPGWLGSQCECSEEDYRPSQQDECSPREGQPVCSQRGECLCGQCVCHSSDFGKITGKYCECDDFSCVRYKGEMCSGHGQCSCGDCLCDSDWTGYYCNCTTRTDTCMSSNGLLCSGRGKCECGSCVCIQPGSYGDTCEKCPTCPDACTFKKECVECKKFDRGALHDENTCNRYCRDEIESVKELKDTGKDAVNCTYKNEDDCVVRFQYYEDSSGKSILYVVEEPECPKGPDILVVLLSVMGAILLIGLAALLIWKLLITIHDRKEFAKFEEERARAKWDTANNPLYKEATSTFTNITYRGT

## PVWVIILAVLAGLLLLAVLVF [αV-TM]
[1]
  Dimerization pKdiss: 0.7 pKdiss (mole ratio units)

## [AEEA]AYVFILLSFILGTLLGFLVMFWA (designed binder) [anti-αV polypeptide]
[2]
  fold decrease in potency in inducing platelet adhesion to immobilized osteopontin: ~10 fold
αV-TM-coum
  Dimerization pKdiss: > 2 pKdiss (mole ratio units)

## WVLVGVLGGLLLLTILVLAMWK [αIIb-TM polypeptide]
[1]
  Dimerization pKdiss: 1.8 pKdiss (mole ratio units)

## AYVFILLSFILGTLLGFLVMFWA (designed binder, also: coumarin-labeled, site not given here) [Anti-αV(coumarin-labeled)]
[1]
  Dimerization pKdiss: 1.4 pKdiss (mole ratio units)

## KKAYVMLLPFFIGLLLGLIFGGAFWGPARHLKK (designed binder, also: FITC-labeled, site not given here) [Anti-αIIb (FITC-labeled)]
[1]
  Dimerization pKdiss: 2.3 pKdiss (mole ratio units)

## KKAYVMLLPFFIGLLLGLIFGGAFWGPARHLKK (designed binder, also called anti-am) [anti-αIIb polypeptide]
[3]
  Dimerization pKdiss: 2.6 pKdiss (mole ratio units)
